Drawing on PMC12305957, this text covers Kd for eight sequences.

In general, Kd refers to the free concentration of one partner at which half of the binding sites on the other are occupied at equilibrium, for simple one-to-one binding. Low values mean a tighter complex, high ones a looser complex.

Series [1] deals with T1, Abf1 (Saccharomyces cerevisiae) (UniProt P14164).
T1 sequence: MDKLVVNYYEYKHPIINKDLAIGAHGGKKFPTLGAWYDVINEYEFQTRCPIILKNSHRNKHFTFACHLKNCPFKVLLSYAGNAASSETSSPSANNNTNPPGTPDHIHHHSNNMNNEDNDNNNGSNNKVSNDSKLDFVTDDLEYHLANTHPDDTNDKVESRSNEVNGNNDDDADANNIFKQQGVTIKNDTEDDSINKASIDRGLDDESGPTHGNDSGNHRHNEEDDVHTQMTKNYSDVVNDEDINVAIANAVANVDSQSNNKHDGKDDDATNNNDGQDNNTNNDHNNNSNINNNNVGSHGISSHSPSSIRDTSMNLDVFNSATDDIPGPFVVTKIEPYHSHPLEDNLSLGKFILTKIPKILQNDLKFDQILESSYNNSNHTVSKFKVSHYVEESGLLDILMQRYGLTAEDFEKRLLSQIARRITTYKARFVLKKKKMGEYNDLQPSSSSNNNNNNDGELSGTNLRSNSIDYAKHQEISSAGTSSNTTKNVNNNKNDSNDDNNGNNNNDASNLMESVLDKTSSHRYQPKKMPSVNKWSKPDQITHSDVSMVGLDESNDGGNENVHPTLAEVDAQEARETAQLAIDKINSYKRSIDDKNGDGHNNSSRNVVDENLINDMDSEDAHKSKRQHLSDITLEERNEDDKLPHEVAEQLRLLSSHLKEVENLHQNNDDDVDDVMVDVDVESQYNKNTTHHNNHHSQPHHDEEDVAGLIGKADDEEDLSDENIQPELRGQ
As to the kind of experiment: EMSA. The note with it: 11.87 mM HEPES-KOH pH 7.9, 3 mM Tris-Cl, 96.67 mM NaCl, 3.33 mM KCl, 5.3 mM MgCl2, 0.13 mM Mg acetate, 1.33 uM ZnCl2, 0.05% NP-40, 10% glycerol, 100 ug/mL BSA …. (In general: Mobility shift assays separate free from complexed probe on a gel.)

In series [2] the target is T2, Reb1 (Saccharomyces cerevisiae) (UniProt P21538).
T2 sequence: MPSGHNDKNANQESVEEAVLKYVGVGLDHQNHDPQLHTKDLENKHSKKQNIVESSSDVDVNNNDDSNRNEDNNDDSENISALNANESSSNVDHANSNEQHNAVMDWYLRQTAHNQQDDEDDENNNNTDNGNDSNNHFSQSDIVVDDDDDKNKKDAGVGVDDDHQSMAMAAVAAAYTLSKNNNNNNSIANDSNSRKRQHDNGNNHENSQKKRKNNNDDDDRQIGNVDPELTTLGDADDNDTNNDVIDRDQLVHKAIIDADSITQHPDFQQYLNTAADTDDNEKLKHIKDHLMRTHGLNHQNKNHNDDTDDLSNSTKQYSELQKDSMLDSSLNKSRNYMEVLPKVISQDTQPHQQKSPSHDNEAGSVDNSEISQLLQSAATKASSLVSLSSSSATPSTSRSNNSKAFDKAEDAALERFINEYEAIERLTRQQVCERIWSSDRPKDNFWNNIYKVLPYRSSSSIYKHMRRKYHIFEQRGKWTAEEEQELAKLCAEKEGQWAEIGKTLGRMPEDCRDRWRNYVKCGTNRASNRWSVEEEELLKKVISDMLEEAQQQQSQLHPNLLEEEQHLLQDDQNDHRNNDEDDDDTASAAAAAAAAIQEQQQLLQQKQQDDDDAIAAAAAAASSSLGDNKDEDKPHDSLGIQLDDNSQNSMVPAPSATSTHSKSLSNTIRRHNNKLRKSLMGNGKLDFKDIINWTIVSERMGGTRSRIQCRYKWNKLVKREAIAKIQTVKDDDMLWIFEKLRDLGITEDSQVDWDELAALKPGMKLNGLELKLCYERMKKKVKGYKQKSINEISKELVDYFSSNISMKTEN
As to the kind of experiment: EMSA. The note with it: 11.87 mM HEPES-KOH pH 7.9, 3 mM Tris-Cl, 96.67 mM NaCl, 3.33 mM KCl, 5.3 mM MgCl2, 0.13 mM Mg acetate, 1.33 uM ZnCl2, 0.05% NP-40, 10% glycerol, 100 ug/mL BSA ….

“ACAGGATGTATATATCTGACACGTGCCTGGAGACTAGGGAGTAATCCCCTTGGCGGTTAAAACGCGGGGGACAGCGCGTACGTGCGTTTAAGCGGTGCTAGAGCTGTCTACGACCAATTGAGCGGCCTCGGCACCGGGATTCTCCAGGGCGGCCGCTTATCGTATTGCATGATAGGGTGATGACCGCGGACCTGCAGGCATGCAAGCTTGAGTATTCTATAGTGTCA (double strand) [NC-80/T-G nucleosome]” registered a Kd in series [1] of 2.49 nM. This counts as single-digit nanomolar.
The sequence “ACAGGATGTATATATCTGACACGTGCCTGGAGACTAGGGAGTAATCCCCTTGGCGGTTAAAACGCGGGGGACAGCGCGTACGTGCGTTTAAGCGGTGCTAGAGCTGTCTACGACCAATTGAGCGGCCTCGGCACCGGGATTCTCCAGGGCGGCCGCTTATCGTATAAAGTGATAGGGTGATGACCGCGGACCTGCAGGCATGCAAGCTTGAGTATTCTATAGTGTCA (double strand) [NC-80/A3G nucleosome]” returned a Kd in series [1] of 2.22 nM.
In turn, “ACAGGATGTATATATCTGACACGTGCCTGGAGACTAGGGAGTAATCCCCTTGGCGGTTAAAACGCGGGGGACAGCGCGTACGTGCGTTTAAGCGGTGCTAGAGCTGTCTACGACCAATTGAGCGGCCTCGGCACCGGGATTCTCCAGGGCGGCCGCTCGGGTAAAGCATCACCATGGTGATGACCGCGGACCTGCAGGCATGCAAGCTTGAGTATTCTATAGTGTCA (double strand) [NC-80/T-AG nucleosome]” returned a Kd in series [2] of 5.94 nM. In other words, the single-digit nanomolar range.
As to “ACAGGATGTATATATCTGACACGTGCCTGGAGACTAGGGAGTAATCCCCTTGGCGGTTAAAACGCGGGGGACAGCGCGTACGTGCGTTTAAGCGGTGCTAGAGCTGTCTACGACCAATTGAGCGGCCTCGGCACCGGGATTCTCCAGGGCGGCCGGCCGGGTAACGCATCACCATGGTGATGACCGCGGACCTGCAGGCATGCAAGCTTGAGTATTCTATAGTGTCA (double strand) [NC-80/G-GC nucleosome]”, the Kd in series [2] amounted to 1.07 nM.
Same read-out and setting: next, “ACAGGATGTATATATCTGACACGTGCCTGGAGACTAGGGAGTAATCCCCTTGGCGGTTAAAACGCGGGGGACAGCGCGTACGTGCGTTTAAGCGGTGCTAGAGCTGTCTACGACCAATTGAGCGGCCTCGGCACCGGGATTCTCCAGGGCGGCCGGACGGGTAACGCATCACCATGGTGATGACCGCGGACCTGCAGGCATGCAAGCTTGAGTATTCTATAGTGTCA (double strand) [NC-80/G-TC nucleosome]”: 1.11 nM.
“ACAGGATGTATATATCTGACACGTGCCTGGAGACTAGGGAGTAATCCCCTTGGCGGTTAAAACGCGGGGGACAGCGCGTACGTGCGTTTAAGCGGTGCTAGAGCTGTCTACGACCAATTGAGCGGCCTCGGCACCGGGATTCTCCAGGGCGGCCGCTAATCGTATTGCATGATATGGTGATGACCGCGGACCTGCAGGCATGCAAGCTTGAGTATTCTATAGTGTCA (double strand) [NC-80/A-T nucleosome]” yielded a Kd in series [1] of 2.39 nM. This lies in the single-digit nanomolar range.
In turn, “ACAGGATGTATATATCTGACACGTGCCTGGAGACTAGGGAGTAATCCCCTTGGCGGTTAAAACGCGGGGGACAGCGCGTACGTGCGTTTAAGCGGTGCTAGAGCTGTCTACGACCAATTGAGCGGCCTCGGCACCGGGATTCTCCAGGGCGGCCGCCCGGGTAACGCATCACCATGGTGATGACCGCGGACCTGCAGGCATGCAAGCTTGAGTATTCTATAGTGTCA (double strand) [NC-80/G-GG nucleosome]” yielded a Kd in series [2] of 1.06 nM.
With “ACAGGATGTATATATCTGACACGTGCCTGGAGACTAGGGAGTAATCCCCTTGGCGGTTAAAACGCGGGGGACAGCGCGTACGTGCGTTTAAGCGGTGCTAGAGCTGTCTACGACCAATTGAGCGGCCTCGGCACCGGGATTCTCCAGGGCGGCCGCTTATCGTATTGCATGATATGGTGATGACCGCGGACCTGCAGGCATGCAAGCTTGAGTATTCTATAGTGTCA (double strand) [NC-80/T-T nucleosome]”, in series [1], the Kd stood at 2.52 nM.
